Several values for one entry are separate records, joined by “and”; a condition that tells them apart may be missing. Equal values may be shown once.
B1: Vrp1p-His (full-length S. pombe verprolin Vrp1p with a COOH-terminal His-tag) (natural protein)
chain: MAPAPPPPPPAPAPAAAAPAPPLMTGDRSALLNSIQKGKKLKKATTNDRSAPVVGGGVVGERKSNTPKSFAAPPVPTGAPSLPTSSNNTQQAEERPSMPALGGLFAGGMPKLRHIGKSSASAAPPSAPAPPTPQSELRPPTSAPPRPSIPPPSPASAPPIPSKAPPIPSSLPPPAQPAAPVKSPPSAPSLPSAVPPMPPKVPPPPLSQAPVANTSSRPSSFAPPAGHAPNVTSESPKFPNRGPSIPSASVPPVPPSSYVLQQRPNRVDDHGRFHFKDDSYLPIPHPFLGVPKVYRGGSGTTVPLNLSSF

Key:
[1] = molecular target: B1; experiment: pull-down
actin monomers = actin monomers (UniProt P68135 1-377); experiment: pull-down

Binder	Kd [1]	Kd (actin monomers)
GST-Myo1p-23A (GST fused to the TH2-SH3-CA domains of the S. pombe myosin-I Myo1p tail) (domain or fragment, UniProt Q9Y7Z8 965-1217, looked up) TSKSKPFPRLATGGSTAAARGPRPVVQNKPAATKPVSMPAAKSKPAPMANPVSTAQQTQNRPPAPAMQARPNTTQAAAPVTSTTTTIKQATTVSASKPAPSTVTSAASSPSNISKPSAPVANNVSKPSAVPPPPPPPPAEVEKKDLYLALYDFAGRSPNEMTIKKDEIIEIVQKEPSGWWLALKNGAEGWVPATYVTEYKGSTPQTTASSTNVAAQANNNASPAEVNNLAGSLADALRMRASAVRGSDEEEDW	4600 nM and 5600 nM	–
B1	–	1000 nM and 900 nM and 800 nM

From PMC2171502 (The Journal of Cell Biology, 2005)
